Laboratory results as given in patent US20210292393A1 (published 2021).

Assays:
[1] = target: T1, SARS-CoV-2 full length spike protein, V367F mutant (SARS-CoV-2, UniProt P0DTC2 14-1273); assay: flow cytometry, CHO cells expressing full-length spike V367F
T1 construct: also called SARS-CoV-2 V367F mutant

[2] = target: T2, SARS-CoV-2 full length spike protein, D614G mutant (SARS-CoV-2, UniProt P0DTC2 14-1273); assay: flow cytometry, CHO cells expressing full-length spike D614G (printed D641G)
T2 construct: also called SARS-CoV-2 D641G mutant

[3] = target: T3, SARS-CoV-2 full length spike protein, V483A mutant (SARS-CoV-2, UniProt P0DTC2 14-1273)
[4] = target: T4, SARS-CoV-2 full length spike protein, V483A mutant (SARS-CoV-2, UniProt P0DTC2 14-1273); assay: flow cytometry, CHO cells expressing full-length spike V483A
T4 construct: also called SARS-CoV-2 V483A mutant

[5] = target: T5, SARS-CoV-2 full length spike protein, V367F mutant (SARS-CoV-2, UniProt P0DTC2 14-1273); assay: flow cytometry, CHO cells expressing full-length spike V367F; remark: listed apart in the source
T5 construct: also called SARS-CoV-2 V367F mutant

[6] = target: SARS-CoV-2 full length spike protein, D614G mutant (SARS-CoV-2, UniProt P0DTC2 14-1273); assay: flow cytometry, CHO cells expressing full-length spike D614G
[7] = target: T4, SARS-CoV-2 full length spike protein, …; remark: listed apart in the source
[8] = target: T3, SARS-CoV-2 full length spike protein, …; assay: flow cytometry, CHO cells expressing full-length spike V483A; remark: listed apart in the source

B1: antibody 296 (antibody, V domains shown)
VH: EVQLVESGGGLVQPGGSLRLSCAGSGFTLSNYWMTWVRQAPGKGLEWVANINQDASRKYYGDSVKGRFSVSRDNAKNSLYLQMNSLTAEDTGFYYCVREELPSTPGSTWGQGTLVTVSS
VL: QSALTQPASVSGSPGQSITISCTGTSSDIGGYNHVSWYQQHPGKAPKLMIYGVSNRPSGVSDRFSGSKSDNTASLTISGLQAEDEADYYCSSPTSRGNKVFGTGTKVTVL
Question: Does B1 bind [1]?
Answer: no binding

Question: Does B1 bind [2]?
Answer: no binding

Question: What about the “median fluorescence intensity, fold over isotype control” value [3] of the same binder?
Answer: 1.27 fold over isotype

B2: antibody 450 (antibody, V domains shown)
VH: EVQLVESGGGLVQPGGSLRLSCAASEFTFSSYWMSWVRQAPGKGLEWVANIKQDGSEKYYVDSVKGRFTISRDNAKNSLYLQMNSLRAEDTAVYYCARVGEYSGYDLFFDYWGQGTLVTVSS
VL: NFMLTQPHSVSESPGKTVTISYTGSSGSIASNYVQWYQQRPGSAPTTVIYEDNQRPSGVPDRFSGSIDSSSNSASLTISGLKTEDEADYYCQSYDSSNQGVFGGGTKLTVL
Question: Which results are given for B2?
Answer: binding result [4]: no binding; binding result [5]: no binding; binding result [6]: no binding; median fluorescence fold over isotype control [7]: 1.27 fold over isotype

B3: antibody 290 (antibody, V domains shown)
VH: QVHLVQSGAEVKKPGASVKVSCAASGYTFNNYGVSWVRQAPGQGLEWMGWISASNGNTKYAQNLQGRVTMTTDTSTSTAYMELRSLRSDDTAVYYCARDLVGPTAPNYYYGMDVWGQGTAVTVSS
VL: QSVLTQPPSVSGAPGQRVTISCTGSSSSIGAGYDVHWYQQLPGTAPKLLIYANSNRPSGVPDRLSGSKSGTSASLAITGLQAEDEADYYCQSYDSSLSGYVFGTGTKVTVL
Question: Does B3 bind [8]?
Answer: no binding
